Experimental data published in patent US20110245145.

Test system: HA-βarrestin2 1-185

Q: How did the “insulin-stimulated phosphorylations of Akt, GSK3P, and Foxo1” value turn out when endogenous Src of Hep3B hepatocytes was run?
A: markedly reduced in the presence of βarrestin2 1-185
